Patent US20180237507A1 (CITY OF HOPE, published 2018)

Target: BoNT serotype A (Clostridium botulinum, UniProt P0DPI0 2-1296)
Experiment: affinity; method not stated (yeast display affinity maturation)

Sequence of BoNT serotype A (P0DPI0 2-1296 limits assumed): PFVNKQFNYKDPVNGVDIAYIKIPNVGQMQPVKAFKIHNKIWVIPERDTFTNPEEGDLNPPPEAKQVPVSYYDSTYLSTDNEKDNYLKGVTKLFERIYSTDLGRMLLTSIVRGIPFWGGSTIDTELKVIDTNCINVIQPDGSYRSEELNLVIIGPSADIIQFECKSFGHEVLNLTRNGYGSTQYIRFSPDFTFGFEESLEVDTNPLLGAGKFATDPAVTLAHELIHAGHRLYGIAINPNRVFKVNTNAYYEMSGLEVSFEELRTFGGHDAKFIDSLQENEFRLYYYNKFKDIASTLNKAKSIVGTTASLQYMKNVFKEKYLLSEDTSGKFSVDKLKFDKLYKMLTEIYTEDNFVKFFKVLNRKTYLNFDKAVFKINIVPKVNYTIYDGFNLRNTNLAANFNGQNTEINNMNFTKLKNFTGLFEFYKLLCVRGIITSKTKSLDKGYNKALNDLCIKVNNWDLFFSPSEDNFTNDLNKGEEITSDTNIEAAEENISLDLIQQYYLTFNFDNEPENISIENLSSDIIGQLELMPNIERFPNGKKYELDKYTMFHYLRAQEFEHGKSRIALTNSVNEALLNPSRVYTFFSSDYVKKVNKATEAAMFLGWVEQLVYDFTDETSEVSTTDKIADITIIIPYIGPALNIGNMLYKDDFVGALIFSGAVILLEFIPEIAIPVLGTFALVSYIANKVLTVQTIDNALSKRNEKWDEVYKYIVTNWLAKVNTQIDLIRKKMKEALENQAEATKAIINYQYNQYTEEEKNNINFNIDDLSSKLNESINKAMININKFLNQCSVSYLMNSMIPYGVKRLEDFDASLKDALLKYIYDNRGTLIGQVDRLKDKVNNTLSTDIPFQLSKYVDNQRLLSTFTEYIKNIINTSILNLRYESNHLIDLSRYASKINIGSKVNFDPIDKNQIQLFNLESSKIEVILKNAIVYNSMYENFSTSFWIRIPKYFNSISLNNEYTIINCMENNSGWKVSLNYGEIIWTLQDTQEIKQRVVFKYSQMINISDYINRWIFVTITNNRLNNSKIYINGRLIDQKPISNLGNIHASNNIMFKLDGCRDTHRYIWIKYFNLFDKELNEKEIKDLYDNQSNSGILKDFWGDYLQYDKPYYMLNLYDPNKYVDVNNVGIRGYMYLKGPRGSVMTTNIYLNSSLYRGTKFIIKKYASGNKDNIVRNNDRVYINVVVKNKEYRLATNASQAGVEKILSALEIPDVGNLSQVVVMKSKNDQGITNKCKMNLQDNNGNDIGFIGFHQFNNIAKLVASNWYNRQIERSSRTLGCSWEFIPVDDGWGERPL

B1: H7 VHH (VHH)
VHH: QVQLVESGGGLVQVGGSLRLSCVVSGSDISGIAMGWYRQAPGKRREMVADIFSGGSTDYAGSVKGRFTISRDNAKKTSYLQMNNVKPEDTGVYYCRLYGSGDYWGQGTQVTVSS
- Kd: 0.042 nM
